According to PMC11933327, “Asymmetric activation of dimeric ATM/Tel1 kinase” (Cell Discovery, 2025):
One block for each molecule: values may come before it.

How the values were obtained:
[1] = target: ATM/Tel1, active state (endogenously activated by DNA damage) (Schizosaccharomyces pombe) (UniProt O74630); assay: mass photometry; active ATM/Tel1 incubated with over-saturated full-length CHK2, complex fractionated by GraFix
[2] = target: ATM/Tel1, active state (endogenously activated by DNA damage) (Schizosaccharomyces pombe) (UniProt O74630); assay: cryo-EM structure; active wild-type ATM/Tel1 incubated with the CHK2 63-74 peptide and AMP-PNP in vitro; Structure 2, 3.6 Å
[3] = target: ATM/Tel1, basal state (Schizosaccharomyces pombe) (UniProt O74630); assay: cryo-EM structure; basal state; resolution improved from 7.8 Å to 4.3 Å with a new algorithm
active ATM/Tel1 dimer = assay: Mass photometry of GraFix-assembled ATM/Tel1-CHK2 complex; format: binding, Schizosaccharomyces pombe; settings: over-saturated full-length CHK2, AMP-PNP, mass photometry 25 °C, 20 nM final protein
Experimental: to SDS- PAGE and analyzed by Western blot (WB) using pan- acetylated -Lysine (Rabbit monoclonal, Cat# 9441S, Cell Signaling Technology). and phospho-ATM/ATR substrate (pSQ/pTQ motif, Rabbit monoclonal, Cat# 6966, Cell Signaling Technology) antibodies.
Surface plasmon resonance
Interaction analysis between ATM/Tel1 in different states and CHK2 was performed at 20 °C using a Biacore 8K (GE Healthcare) by immobilizing CHK2 onto a CM5 sensor chip. A twofold dilution series of […] was injected at a flow rate of 30 µl min –1 in PBS running buffer. All conditions were tested for at least five different antibody concentrations, and the blank channel of the chip served as the negative control. After each cycle, the sensor was regenerated with 10 mM NaOH.
Data processing and kinetic analyses were performed using Biacore 8K Evaluation Software […]
To determine the stoichiometry and mass distribution between active ATM/Tel1 and its substrate CHK2, standard mass photometry landing assays were performed at 25 °C using a TwoMP instrument (Refeyn) mounted on an active anti-vibration platform. […] Bovine serum albumin standards (Beyotime) were measured on the same day to calibrate extracted particle contrast relative to mass. […]

[4] = target: ATM/Tel1, active state (endogenously activated by DNA damage) (Schizosaccharomyces pombe, UniProt O74630 1-2812, autophosphorylation and acetylation (sites not given)); assay: SPR
ATM/Tel1, basal state [5] = target: ATM/Tel1, basal state (Schizosaccharomyces pombe, UniProt O74630 1-2812); assay: SPR
ATM/Tel1, basal state [6] = target: T1, ATM/Tel1, basal state (Schizosaccharomyces pombe, UniProt O74630 1-2812); assay: SPR; CHK2 (full length or peptide) at varied concentrations on basal or active ATM/Tel1; settings: both partners purified
T1 construct: ATM/Tel1 kinase of Schizosaccharomyces pombe, basal state, symmetric homodimer; also called basal ATM/Tel1; basal-state ATM/Tel1; source: purified

Chain of ATM/Tel1, active state (endogenously activated by DNA damage) (O74630 whole entry): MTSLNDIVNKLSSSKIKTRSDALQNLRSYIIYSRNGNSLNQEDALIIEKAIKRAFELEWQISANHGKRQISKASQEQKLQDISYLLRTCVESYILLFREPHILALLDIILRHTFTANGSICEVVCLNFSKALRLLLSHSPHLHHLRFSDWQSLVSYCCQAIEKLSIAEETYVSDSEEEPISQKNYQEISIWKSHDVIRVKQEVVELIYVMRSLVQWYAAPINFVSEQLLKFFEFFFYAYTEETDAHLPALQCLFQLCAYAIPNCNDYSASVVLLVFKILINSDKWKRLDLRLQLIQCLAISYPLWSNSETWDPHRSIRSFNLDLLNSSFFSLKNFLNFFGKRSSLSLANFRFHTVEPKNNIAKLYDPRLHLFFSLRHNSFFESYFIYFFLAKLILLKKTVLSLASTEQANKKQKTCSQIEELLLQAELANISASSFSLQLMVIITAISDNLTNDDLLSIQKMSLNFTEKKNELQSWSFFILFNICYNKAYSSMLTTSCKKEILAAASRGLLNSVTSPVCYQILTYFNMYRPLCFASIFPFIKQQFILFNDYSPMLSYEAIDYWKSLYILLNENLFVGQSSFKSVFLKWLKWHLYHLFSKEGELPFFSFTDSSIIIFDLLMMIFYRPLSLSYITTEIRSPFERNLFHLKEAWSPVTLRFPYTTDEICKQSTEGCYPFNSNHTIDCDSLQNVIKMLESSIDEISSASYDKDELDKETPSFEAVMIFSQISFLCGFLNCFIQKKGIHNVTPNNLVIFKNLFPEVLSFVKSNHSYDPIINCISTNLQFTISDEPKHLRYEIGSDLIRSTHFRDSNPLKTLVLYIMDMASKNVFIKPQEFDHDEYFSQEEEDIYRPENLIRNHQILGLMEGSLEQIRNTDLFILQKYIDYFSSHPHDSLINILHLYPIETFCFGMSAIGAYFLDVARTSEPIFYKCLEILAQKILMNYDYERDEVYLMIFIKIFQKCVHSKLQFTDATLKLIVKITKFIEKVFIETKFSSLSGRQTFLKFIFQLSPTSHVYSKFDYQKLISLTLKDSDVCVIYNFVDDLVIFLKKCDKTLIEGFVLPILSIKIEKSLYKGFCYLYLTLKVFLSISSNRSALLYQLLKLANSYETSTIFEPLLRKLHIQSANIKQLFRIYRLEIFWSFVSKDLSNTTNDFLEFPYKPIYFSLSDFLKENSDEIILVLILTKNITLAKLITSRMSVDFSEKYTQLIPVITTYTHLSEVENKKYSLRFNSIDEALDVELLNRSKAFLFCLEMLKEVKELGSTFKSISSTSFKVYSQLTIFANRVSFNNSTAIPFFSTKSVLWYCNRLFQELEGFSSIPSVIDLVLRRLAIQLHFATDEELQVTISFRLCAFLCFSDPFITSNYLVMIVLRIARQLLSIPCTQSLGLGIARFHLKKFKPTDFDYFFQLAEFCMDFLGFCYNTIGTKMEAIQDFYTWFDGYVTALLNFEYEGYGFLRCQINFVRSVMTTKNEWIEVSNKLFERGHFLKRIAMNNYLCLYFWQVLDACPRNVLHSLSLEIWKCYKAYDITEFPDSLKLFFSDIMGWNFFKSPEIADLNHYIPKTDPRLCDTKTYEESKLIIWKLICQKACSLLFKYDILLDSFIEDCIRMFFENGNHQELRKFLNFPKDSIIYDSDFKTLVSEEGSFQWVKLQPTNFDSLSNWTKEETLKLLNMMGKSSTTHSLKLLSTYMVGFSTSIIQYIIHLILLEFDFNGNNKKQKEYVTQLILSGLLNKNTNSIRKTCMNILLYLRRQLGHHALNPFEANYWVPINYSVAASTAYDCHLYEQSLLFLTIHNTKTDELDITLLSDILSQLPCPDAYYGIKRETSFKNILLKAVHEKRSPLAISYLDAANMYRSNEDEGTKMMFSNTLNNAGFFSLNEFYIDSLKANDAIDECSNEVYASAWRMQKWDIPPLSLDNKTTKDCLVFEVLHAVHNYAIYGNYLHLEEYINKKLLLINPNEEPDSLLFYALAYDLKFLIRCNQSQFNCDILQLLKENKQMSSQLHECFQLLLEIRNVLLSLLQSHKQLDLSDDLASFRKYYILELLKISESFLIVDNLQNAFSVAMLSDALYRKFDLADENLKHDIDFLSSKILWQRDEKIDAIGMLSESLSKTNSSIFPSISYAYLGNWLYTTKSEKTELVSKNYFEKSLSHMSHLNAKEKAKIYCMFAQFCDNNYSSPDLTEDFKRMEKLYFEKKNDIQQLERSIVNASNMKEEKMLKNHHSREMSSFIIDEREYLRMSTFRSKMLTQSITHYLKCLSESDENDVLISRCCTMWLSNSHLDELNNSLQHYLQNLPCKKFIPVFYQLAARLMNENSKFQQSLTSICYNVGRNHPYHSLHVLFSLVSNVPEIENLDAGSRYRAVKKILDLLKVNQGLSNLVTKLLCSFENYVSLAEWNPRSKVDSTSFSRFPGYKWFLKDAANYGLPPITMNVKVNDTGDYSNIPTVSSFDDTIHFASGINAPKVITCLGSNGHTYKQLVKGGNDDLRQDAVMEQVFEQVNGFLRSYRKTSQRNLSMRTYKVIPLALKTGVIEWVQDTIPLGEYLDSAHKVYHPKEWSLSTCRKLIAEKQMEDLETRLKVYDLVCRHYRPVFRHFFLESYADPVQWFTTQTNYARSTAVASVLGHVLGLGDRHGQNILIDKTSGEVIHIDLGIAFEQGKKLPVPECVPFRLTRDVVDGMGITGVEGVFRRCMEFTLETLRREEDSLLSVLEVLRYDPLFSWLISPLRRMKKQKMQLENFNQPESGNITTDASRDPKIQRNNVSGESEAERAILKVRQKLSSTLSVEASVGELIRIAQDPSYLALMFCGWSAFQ

Molecule: ATM/Tel1, active state (endogenously activated by DNA damage), O74630 1-2812
- stoichiometry N [1]: 2
- stoichiometry N [2]: 2

Molecule: full-length CHK2: human full-length CHK2, C-terminal 6× His tag, expressed in E. coli BL21(DE3)
- CHK2 molecules bound per ATM/Tel1 dimer (active ATM/Tel1 dimer): only one CHK2 molecule is bound to an ATM/Tel1 dimer

More lines, main results first:

- stoichiometry N [3]: 2
Molecule: ATM/Tel1, basal state, O74630 1-2812

- Kd (ATM/Tel1, basal state [5]): 296 µM
- fold reduction of affinity against active ATM/Tel1 (ATM/Tel1, basal state [6]): > 120 fold
B1: CHK2 substrate peptide (CHK2 63-74) (peptide, UniProt O96017 63-74, looked up)
peptide: LETVSTQELYSI
notes: CHK2 residues 63-74; also called CHK2 peptide
- Kd [4]: 2.37 µM
